In assay [1] the target is T1, ATG9A with N-terminal 6xHis and Twin-StrepII tags (human, UniProt Q7Z3C6 1-839).
T1 sequence: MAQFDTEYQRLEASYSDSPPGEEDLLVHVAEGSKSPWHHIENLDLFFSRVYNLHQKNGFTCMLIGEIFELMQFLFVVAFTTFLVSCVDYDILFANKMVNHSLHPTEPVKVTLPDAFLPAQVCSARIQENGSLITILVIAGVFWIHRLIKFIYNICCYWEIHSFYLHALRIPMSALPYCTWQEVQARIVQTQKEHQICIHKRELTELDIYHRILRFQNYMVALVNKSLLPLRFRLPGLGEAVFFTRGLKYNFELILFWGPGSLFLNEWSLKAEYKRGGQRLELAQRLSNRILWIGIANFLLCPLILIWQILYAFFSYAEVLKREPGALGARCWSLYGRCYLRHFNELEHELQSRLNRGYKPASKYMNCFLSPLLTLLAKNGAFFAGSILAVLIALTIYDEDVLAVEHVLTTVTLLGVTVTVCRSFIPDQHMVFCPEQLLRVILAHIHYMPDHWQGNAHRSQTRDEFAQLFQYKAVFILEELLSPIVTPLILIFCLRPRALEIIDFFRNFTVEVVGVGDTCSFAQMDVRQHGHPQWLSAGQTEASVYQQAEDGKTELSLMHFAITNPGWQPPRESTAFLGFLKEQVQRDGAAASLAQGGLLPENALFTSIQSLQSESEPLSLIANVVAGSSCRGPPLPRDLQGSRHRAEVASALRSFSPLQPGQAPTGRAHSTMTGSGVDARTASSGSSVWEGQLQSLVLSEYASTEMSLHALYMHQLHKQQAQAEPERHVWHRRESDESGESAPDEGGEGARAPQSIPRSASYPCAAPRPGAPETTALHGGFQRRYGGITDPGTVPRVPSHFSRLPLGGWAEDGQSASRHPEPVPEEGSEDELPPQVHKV
The assay is described as follows: cryo-EM structure.

The target of assay [2] is T2, ATG9A with N-terminal 6xHis and Twin-StrepII tags (human), Q7Z3C6.
T2 chain: T1 sequence
Description: cryo-EM structure. As to conditions: remark: other sources report otherwise.

For orientation: stoichiometry N means a count of units in the complex or per binding partner.

B1: human ATG2A, full length (natural protein)
chain: MSRWLWPWSNCVKERVCRYLLHHYLGHFFQEHLSLDQLSLDLYKGSVALRDIHLEIWSVNEVLESMESPLELVEGFVGSIEVAVPWAALLTDHCTVRVSGLQLTLQPRRGPAPGAADSQSWASCMTTSLQLAQECLRDGLPEPSEPPQPLEGLEMFAQTIETVLRRIKVTFLDTVVRVEHSPGDGERGVAVEVRVQRLEYCDEAVRDPSQAPPVDVHQPPAFLHKLLQLAGVRLHYEELPAQEEPPEPPLQIGSCSGYMELMVKLKQNEAFPGPKLEVAGQLGSLHLLLTPRQLQQLQELLSAVSLTDHEGLADKLNKSRPLGAEDLWLIEQDLNQQLQAGAVAEPLSPDPLTNPLLNLDNTDLFFSMAGLTSSVASALSELSLSDVDLASSVRSDMASRRLSAQAHPAGKMAPNPLLDTMRPDSLLKMTLGGVTLTLLQTSAPSSGPPDLATHFFTEFDATKDGPFGSRDFHHLRPRFQRACPCSHVRLTGTAVQLSWELRTGSRGRRTTSMEVHFGQLEVLECLWPRGTSEPEYTEILTFPGTLGSQASARPCAHLRHTQILRRVPKSRPRRSVACHCHSELALDLANFQADVELGALDRLAALLRLATVPAEPPAGLLTEPLPAMEQQTVFRLSAPRATLRLRFPIADLRPEPDPWAGQAVRAEQLRLELSEPQFRSELSSGPGPPVPTHLELTCSDLHGIYEDGGKPPVPCLRVSKALDPKSTGRKYFLPQVVVTVNPQSSSTQWEVAPEKGEELELSVESPCELREPEPSPFSSKRTMYETEEMVIPGDPEEMRTFQSRTLALSRCSLEVILPSVHIFLPSKEVYESIYNRINNDLLMWEPADLLPTPDPAAQPSGFPGPSGFWHDSFKMCKSAFKLANCFDLTPDSDSDDEDAHFFSVGASGGPQAAAPEAPSLHLQSTFSTLVTVLKGRITALCETKDEGGKRLEAVHGELVLDMEHGTLFSVSQYCGQPGLGYFCLEAEKATLYHRAAVDDYPLPSHLDLPSFAPPAQLAPTIYPSEEGVTERGASGRKGQGRGPHMLSTAVRIHLDPHKNVKEFLVTLRLHKATLRHYMALPEQSWHSQLLEFLDVLDDPVLGYLPPTVITILHTHLFSCSVDYRPLYLPVRVLITAETFTLSSNIIMDTSTFLLRFILDDSALYLSDKCEVETLDLRRDYVCVLDVDLLELVIKTWKGSTEGKLSQPLFELRCSNNVVHVHSCADSCALLVNLLQYVMSTGDLHPPPRPPSPTEIAGQKLSESPASLPSCPPVETALINQRDLADALLDTERSLRELAQPSGGHLPQASPISVYLFPGERSGAPPPSPPVGGPAGSLGSCSEEKEDEREEEGDGDTLDSDEFCILDAPGLGIPPRDGEPVVTQLHPGPIVVRDGYFSRPIGSTDLLRAPAHFPVPSTRVVLREVSLVWHLYGGRDFGPHPGHRARTGLSGPRSSPSRCSGPNRPQNSWRTQGGSGRQHHVLMEIQLSKVSFQHEVYPAEPATGPAAPSQELEERPLSRQVFIVQELEVRDRLASSQINKFLYLHTSERMPRRAHSNMLTIKALHVAPTTNLGGPECCLRVSLMPLRLNVDQDALFFLKDFFTSLVAGINPVVPGETSAEARPETRAQPSSPLEGQAEGVETTGSQEAPGGGHSPSPPDQQPIYFREFRFTSEVPIWLDYHGKHVTMDQVGTFAGLLIGLAQLNCSELKLKRLCCRHGLLGVDKVLGYALNEWLQDIRKNQLPGLLGGVGPMHSVVQLFQGFRDLLWLPIEQYRKDGRLMRGLQRGAASFGSSTASAALELSNRLVQAIQATAETVYDILSPAAPVSRSLQDKRSARRLRRGQQPADLREGVAKAYDTVREGILDTAQTICDVASRGHEQKGLTGAVGGVIRQLPPTVVKPLILATEATSSLLGGMRNQIVPDAHKDHALKWRSDSAQD
On to B1, for which the “stoichiometry N” value in assay [1] came out at 1 ATG2A per ATG9A trimer.

B2: ATG9A with N-terminal 6xHis and Twin-StrepII tags, Q7Z3C6 1-839 (natural protein)
chain: T1 sequence
In turn, B2 registered a stoichiometry N in assay [2] of 3.

For the origin of these results see publication doi:10.1101/2023.07.08.548186 (bioRxiv, 2023).
